# Experimental data: the Human Domainome abundance scans (Beltran et al. 2025)
# ± gives the uncertainty stated by the source.
# B1: Double-stranded RNA-binding protein Staufen homolog 1, residues 183 to 249; numbered along this chain, O95793 (parent)
# chain: KSEISQVFEIALKRNLPVNFEVARESGPPHMKNFVTKVSVGEFVGEGEGKSKKISKKNAAIAVLEEL
# Variants of: B1
# Test: abundance fitness (aPCA) (normalised: wild type 0, dead -1); higher = more abundant; growth selection in yeast, the domain comes from the species named
# Settings: Homo sapiens
row,Variant,abundance fitness
1,KSEISQVFEIALKRNLPVNFEVARESGPPHMKNFVTKVSVGEFVEEGEGKSKKISKKNAAIAVLEEL,-0.484 ± 0.053
2,KSEISQVFEIALKRNLPVNFEVPRESGPPHMKNFVTKVSVGEFVGEGEGKSKKISKKNAAIAVLEEL,0.021 ± 0.052
3,KSEISQVFEIALKRNLPVNFEVQRESGPPHMKNFVTKVSVGEFVGEGEGKSKKISKKNAAIAVLEEL,-0.005 ± 0.053
4,KSEISQVFEIALKRNLPVNFEVCRESGPPHMKNFVTKVSVGEFVGEGEGKSKKISKKNAAIAVLEEL,-0.055 ± 0.053
5,KSEISQVFEIALKRNLPVNFEVIRESGPPHMKNFVTKVSVGEFVGEGEGKSKKISKKNAAIAVLEEL,0.011 ± 0.062
6,KSEISQVFEIALKRNLPVNFEVARESGPPHMKNFVTKVSVGEFGGEGEGKSKKISKKNAAIAVLEEL,-0.414 ± 0.04
7,KSEISQVFEIALKRNLPVNFEVARESGPPHMKNFVTKVSVGEFLGEGEGKSKKISKKNAAIAVLEEL,-0.14 ± 0.052
8,KSEISQVFEIALKRNLPVNFIVARESGPPHMKNFVTKVSVGEFVGEGEGKSKKISKKNAAIAVLEEL,-0.204 ± 0.066
9,KSEISQVFEIALKRNLPVNFMVARESGPPHMKNFVTKVSVGEFVGEGEGKSKKISKKNAAIAVLEEL,-0.181 ± 0.059
10,KSEISQVFEIALKRNLPVNFRVARESGPPHMKNFVTKVSVGEFVGEGEGKSKKISKKNAAIAVLEEL,-0.084 ± 0.034
11,KSEISQVFEIALKRNLPVNFEVARESGPPHMKNFVTKVSVGEFVGEGEGASKKISKKNAAIAVLEEL,-0.035 ± 0.047
12,KSEISQVFEIALKRNLPVNFEVARESGPPHMKNFVTKVSVGEFVGEGEGKQKKISKKNAAIAVLEEL,-0.445 ± 0.081
13,KSEISQVFEIALKRNLPVNFEVARESGPPHMKNFVTKVSVGEFVGEGEGKFKKISKKNAAIAVLEEL,-0.929 ± 0.1
14,KSEISQVFEIALKRNLPVNFEVARESGPPHMKNFVTKVSVGEFVGEGEGKSKKISKKNAAKAVLEEL,-0.047 ± 0.057
15,KSEISQVFEIALKRNLPVNFEVARESGPPHMKNFVTKVSVGEFVGEGEGKSKKISKKNAAAAVLEEL,0.002 ± 0.066
16,KSEISQVFEIALKRNLPVNFEVARESGPPHMKNFVTKVSVGEFVGEGEGKSKKISKKNAAVAVLEEL,-0.104 ± 0.054
17,KSEISQVFEIALKRNLPVNFEVARESGPPHMKNFVTKVSVGEFVGEGEGKSKKWSKKNAAIAVLEEL,-0.619 ± 0.05
18,KSEISQVFEIALKRNLPVNFEVAREQGPPHMKNFVTKVSVGEFVGEGEGKSKKISKKNAAIAVLEEL,-0.337 ± 0.42
19,KSEISQVFEIALKRNLPVNFEVARESGPPHMKNFVTKVSVGEFVGEGEGKSKKISKVNAAIAVLEEL,-0.218 ± 0.24
20,KSEISQVFEIALKRNLPVNFEVARESGPPHMKNFVTKVSVGEFVGEGEGKSKKISKLNAAIAVLEEL,-0.163 ± 0.19

row,Variant,abundance fitness
1,KSEISQVFEIALKRNLPVNFEVARESGPPHMKNFPTKVSVGEFVGEGEGKSKKISKKNAAIAVLEEL,-0.502 ± 0.068
2,KSEISQVFEIALKRNLPVNFEVARESGPPHMKNFVTKVSCGEFVGEGEGKSKKISKKNAAIAVLEEL,-0.289 ± 0.1
3,KSEISQVFEIALKRNLPVNFEVARESGPPHMKNFVTKVSVGEFVGEGEGKSKKISKKNPAIAVLEEL,-1.08 ± 0.12
4,KSEISQVFEIALKRNLPVNFEVARESGPPHMKNFVTKVSVGEFVGEGEGKSKKISKKNRAIAVLEEL,-0.843 ± 0.041
5,KSEISQVFEIALKRNLPVNFEVARESGPPHMKNFVTKVSVGEFVGEGEGKSKKISKKNEAIAVLEEL,-0.798 ± 0.065
6,KSEISQVFEIALKRNLPVNFEVARESGPPHMKNFVTKVSVGEFVGEGEGKSKQISKKNAAIAVLEEL,-0.207 ± 0.065
7,KSEISQVFEIALKRNLPVNFEVARESGPPHMKNFVTKVSVGEFVGEGEGKSCKISKKNAAIAVLEEL,-0.432 ± 0.075
8,KSEISQVFEIALKRNLPVNFEVARESGPPHMKNFVTKVSVGEFVGEGEGKSSKISKKNAAIAVLEEL,-0.416 ± 0.049
9,KSEISQVAEIALKRNLPVNFEVARESGPPHMKNFVTKVSVGEFVGEGEGKSKKISKKNAAIAVLEEL,-0.334 ± 0.047
10,KSEISQVFGIALKRNLPVNFEVARESGPPHMKNFVTKVSVGEFVGEGEGKSKKISKKNAAIAVLEEL,-0.433 ± 0.039
11,KSEISQVFIIALKRNLPVNFEVARESGPPHMKNFVTKVSVGEFVGEGEGKSKKISKKNAAIAVLEEL,-0.552 ± 0.072
12,KSEISQVFEIALKRNLPVNFEVARESGPPHMKNFVTKVSVGEFVGVGEGKSKKISKKNAAIAVLEEL,0.036 ± 0.048
13,KSEISQVFEIALKRNLPVNFEVARESGPPHMKNFVTKISVGEFVGEGEGKSKKISKKNAAIAVLEEL,-0.168 ± 0.09
14,KSEISQVFEIALKRNLPVNFEVARESGPPHMKNFVTKASVGEFVGEGEGKSKKISKKNAAIAVLEEL,-0.196 ± 0.052
15,KSEISQVFEIALKRNLPVNFEVARESGPPHMKNFVTKVSVGEFVGEGEGKSKKISKKNAAIAVLEEH,-0.299 ± 0.25
16,KSEISQVFEIALKRNLPVNFEVARESGPPHMKNFVTKVSVGEFVGEGEGKSKKISKKNAAIAVLEEF,-0.355 ± 0.11
17,KSEISQVFEIALKRNLPVNFEVARESGPPHMKCFVTKVSVGEFVGEGEGKSKKISKKNAAIAVLEEL,-0.163 ± 0.1
18,KSEISQVFEIALKRNLPVNFEVARESGPPHMKTFVTKVSVGEFVGEGEGKSKKISKKNAAIAVLEEL,0.052 ± 0.048
19,KSEISQVFEIALKRNLPVNFEVARESGPPHMKRFVTKVSVGEFVGEGEGKSKKISKKNAAIAVLEEL,0.008 ± 0.04
20,KSEISQVFEIALKRNLPVNFEVARESGPPHMKPFVTKVSVGEFVGEGEGKSKKISKKNAAIAVLEEL,-0.386 ± 0.064
